Laboratory results published in US20250011428A1 (Novartis, published 2025).
Changes are numbered by the printed parent chain.

B1: CD3_2 (antibody, human IgG1, lambda)
heavy: EVQLVESGGGLVQPGGSLKLSCAASGFTFNTYAMNWVRQASGKGLEWVGRIRSKYNNYATYYADSVKDRFTISRDDSKSTLYLQMNSLKTEDTAVYYCVRHGNFGNSYVSWFAYWGQGTLVTVSSASTKGPSVFPLAPSSKSTSGGTAALGCLVKDYFPEPVTVSWNSGALTSGVHTFPAVLQSSGLYSLSSVVTVPSSSLGTQTYICNVNHKPSNTKVDKRVEPKSCDKTHTCPPCPAPELCCHPSVFLFPPKPKDTLMISRTPEVTCVVVGLRHEDPEVKFNWYVDGVEVHNAKTKPREEQYCGCYRVVSVLTVLHQDWLNGKEYKCKVSNKALPAPIEKTISKAKGQPREPQVYTLPPSRDELTKNQVSLTCLVKGFYPSDIAVEWESNGQPENNYKTTPPVLDSDGSFFLYSKLTVDKSRWQQGNVFSCSVMHEALHNHYTQKSLSLSPGK
light: QAVVTQEPSLTVSPGGTVTLTCRSSTGAVTTSNYANWVQQKPGQAPRGLIGGTNKRAPWTPARFSGSLLGDKAALTLSGAQPEDEAEYFCALWYSNLWVFGGGTKLTVLGQPKAAPSVTLFPPSSEELQANKATLVCLISDFYPGAVTVAWKADSSPVKAGVETTTPSKQSNNKYAASSYLSLTPEQWKSHRSYSCQVTHEGSTVEKTVAPTECS
notes: hIgG1
B2: CD3_1_YTE (antibody, human IgG1, lambda)
heavy: B1 heavy with S247R, M260Y, S262T, T264E, V272T, H276D, R309S
light: B1 light
notes: hIgG1
B3: CD3_1 (antibody, human IgG1, lambda)
heavy: B1 heavy with S247R, V272T, H276D, R309S
light: B1 light
notes: hIgG1
B4: CD3_3_YTE (antibody, human IgG1, lambda)
heavy: B1 heavy with M260Y, S262T, T264E, V272T, H276D
light: B1 light
notes: hIgG1
B5: CD3_DANAPA (antibody, human IgG1, lambda, N297A)
heavy: B1 heavy with C243L, C244G, H245G, G273A, L274V, R275S, C305A, G306S, C307T, P337A
light: B1 light
notes: hIgG1; silencing benchmark
B6: CD3_4 (antibody, human IgG1, lambda)
heavy: B1 heavy with G273D, L274V, R275S
light: B1 light
notes: hIgG1
B7: CD3_3 (antibody, human IgG1, lambda)
heavy: B1 heavy with V272T, H276D
light: B1 light
notes: hIgG1
B8: CD3_11_YTE (antibody, human IgG1, lambda)
heavy: EVQLVESGGGLVQPGGSLKLSCAASGFTFNTYAMNWVRQASGKGLEWVGRIRSKYNNYATYYADSVKDRFTISRDDSKSTLYLQMNSLKTEDTAVYYCVRHGNFGNSYVSWFAYWGQGTLVTVSSASTKGPSVFPLAPSSKSTSGGTAALGCLVKDYFPEPVTVSWNSGALTSGVHTFPAVLQSSGLYSLSSVVTVPSSSLGTQTYICNVNHKPSNTKVDKRVEPKSCDKTHTCPPCPAPELLGGPSVFLFPPKPKDTLYITREPEVTCVVVDVSHEDPEVKFNWYVDGVEVHNAKTKPREEQYCSTYRVVSVLTVLHQDWLNGKEYKCKVSNKALPAPIEKTISKAKGQPREPQVYTLPPSRDELTKNQVSLTCLVKGFYPSDIAVEWESNGQPENNYKTTPPVLDSDGSFFLYSKLTVDKSRWQQGNVFSCSVMHEALHNHYTQKSLSLSPGK
light: B1 light
notes: hIgG1
B9: CD3_8 (antibody, human IgG1, lambda)
heavy: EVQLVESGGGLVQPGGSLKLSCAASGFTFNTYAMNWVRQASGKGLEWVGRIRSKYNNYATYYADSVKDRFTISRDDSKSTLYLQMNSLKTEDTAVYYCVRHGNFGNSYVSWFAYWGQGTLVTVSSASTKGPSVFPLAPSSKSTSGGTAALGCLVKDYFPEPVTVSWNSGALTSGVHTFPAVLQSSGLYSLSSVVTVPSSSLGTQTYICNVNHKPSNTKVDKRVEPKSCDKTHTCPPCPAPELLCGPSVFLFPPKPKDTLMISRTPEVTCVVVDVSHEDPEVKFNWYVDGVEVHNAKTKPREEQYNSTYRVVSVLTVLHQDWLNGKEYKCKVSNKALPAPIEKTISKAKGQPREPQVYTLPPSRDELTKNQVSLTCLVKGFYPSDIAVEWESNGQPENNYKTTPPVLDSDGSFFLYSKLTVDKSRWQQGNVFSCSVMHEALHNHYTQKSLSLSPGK
light: B1 light
notes: hIgG1
B10: CD3_5_YTE (antibody, human IgG1, lambda)
heavy: B8 heavy with L243C, G244C, T307C
light: B1 light
notes: hIgG1
B11: CD3_10 (antibody, human IgG1, lambda)
heavy: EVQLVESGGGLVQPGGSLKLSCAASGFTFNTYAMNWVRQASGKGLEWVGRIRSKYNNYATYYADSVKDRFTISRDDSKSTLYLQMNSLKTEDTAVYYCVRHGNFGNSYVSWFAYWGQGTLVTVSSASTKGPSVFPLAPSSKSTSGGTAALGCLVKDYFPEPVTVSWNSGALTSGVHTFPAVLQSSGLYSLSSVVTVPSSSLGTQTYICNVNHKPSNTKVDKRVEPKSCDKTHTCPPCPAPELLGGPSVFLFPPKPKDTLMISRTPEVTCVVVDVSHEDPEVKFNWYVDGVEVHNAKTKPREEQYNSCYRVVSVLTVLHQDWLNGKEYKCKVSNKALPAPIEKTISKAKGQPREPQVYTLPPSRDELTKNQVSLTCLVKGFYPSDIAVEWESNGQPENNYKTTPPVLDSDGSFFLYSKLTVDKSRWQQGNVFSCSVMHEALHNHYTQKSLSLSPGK
light: B1 light
notes: hIgG1
B12: CD3_6_YTE (antibody, human IgG1, lambda)
heavy: B8 heavy with L243C, G244C, C305N
light: B1 light
notes: hIgG1
B13: CD3_7_YTE (antibody, human IgG1, lambda)
heavy: B8 heavy with T307C
light: B1 light
notes: hIgG1
B14: CD3_9 (antibody, human IgG1, lambda)
heavy: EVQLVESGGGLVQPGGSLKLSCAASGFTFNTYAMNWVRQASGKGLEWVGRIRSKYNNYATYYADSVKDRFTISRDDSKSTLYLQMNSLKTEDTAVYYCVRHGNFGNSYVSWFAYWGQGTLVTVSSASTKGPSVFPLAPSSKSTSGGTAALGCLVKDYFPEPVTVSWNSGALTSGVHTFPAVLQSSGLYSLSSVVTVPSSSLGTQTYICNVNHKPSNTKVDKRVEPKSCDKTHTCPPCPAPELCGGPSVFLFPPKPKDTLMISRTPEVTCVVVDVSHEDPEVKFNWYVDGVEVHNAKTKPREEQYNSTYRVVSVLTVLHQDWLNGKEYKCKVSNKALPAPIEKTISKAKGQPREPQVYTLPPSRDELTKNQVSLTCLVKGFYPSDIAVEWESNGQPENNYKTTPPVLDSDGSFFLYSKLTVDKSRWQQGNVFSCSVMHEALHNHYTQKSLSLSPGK
light: B1 light
notes: hIgG1
B15: CD3_WT_YTE (antibody, human IgG1, lambda)
heavy: B8 heavy with C305N
light: B1 light
notes: hIgG1
B16: CD3_4_YTE (antibody, human IgG1, lambda)
heavy: B8 heavy with L243C, G244C, G245H, S306G, T307C
light: B1 light
notes: hIgG1
B17: CD3_9_YTE (antibody, human IgG1, lambda)
heavy: B8 heavy with L243C, C305N
light: B1 light
notes: hIgG1

Columns and labels:
[1] = target: T1, recombinant human hFcγR3a (F158V) (human, UniProt P08637 17-208); assay: SPR Biacore T200; IgG amine-coupled on CM5, receptor as analyte; response normalized to parental (=100);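 further: measured at room temperature in pH 7.6 phosphate buffer with Tween 20, double-referenced sensorgrams, maximum response taken as binding capacity at saturation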
T1 construct: also called FcγRIII
T1 sequence (P08637 17-208 F176V): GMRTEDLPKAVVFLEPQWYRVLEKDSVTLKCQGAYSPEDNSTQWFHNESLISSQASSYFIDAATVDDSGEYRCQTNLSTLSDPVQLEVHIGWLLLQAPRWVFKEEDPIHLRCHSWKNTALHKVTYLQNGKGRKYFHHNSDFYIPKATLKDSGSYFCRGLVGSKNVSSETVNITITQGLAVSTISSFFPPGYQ
Procedure: (§1) Kinetics and binding capacity were measured on a BIAcore® T200 instrument (GE Healthcare, Glattbrugg, Switzerland) at room temperature, with proteins diluted in running buffer 10 mM NaP, 150 mM NaCl, 0.05% Tween 20, pH7.6. A CM5 sensor chip (Sensor Chip SA, GE Healthcare Life Sciences) was used to immobilized engineered immunoglobulins by amine coupling. Then, recombinant human hFcγR1a, or recombinant human hFcγR3a (F158V), or recombinant human hFcRn, or hC1q was used as the analyte.
(§2) Binding data were acquired by subsequent injection of analyte dilution series on the reference and measuring flow cells. Zero concentration samples (running buffer only) were included to allow double referencing during data evaluation. For data evaluation, doubled referenced sensorgrams were analyzed and the maximum response reached during the experiment was monitored. Maximum response describes the binding capacity of the surface in terms of the response at saturation. Finally, measured maximum responses were normalized to the one measured using parental immunoglobulin (not engineered).

[2] = target: T2, recombinant human hFcγR1a (human, UniProt P12314 16-288, limits assumed); assay: as above
T2 construct: recombinant, analyte in SPR; also called FcγRI
T2 sequence (P12314 16-288 limits assumed): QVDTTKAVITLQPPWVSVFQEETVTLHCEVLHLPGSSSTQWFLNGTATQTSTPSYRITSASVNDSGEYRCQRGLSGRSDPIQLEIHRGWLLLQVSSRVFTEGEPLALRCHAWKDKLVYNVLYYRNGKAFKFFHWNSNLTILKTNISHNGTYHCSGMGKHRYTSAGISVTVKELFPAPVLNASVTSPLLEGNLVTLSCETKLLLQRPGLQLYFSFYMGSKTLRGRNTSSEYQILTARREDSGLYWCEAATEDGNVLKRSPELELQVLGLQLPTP
Procedure: as §1, §2

[3] = target: T3, hCD3epsilon-FC antigen (human, UniProt P07766 23-126); assay: SPR Biacore T200; hCD3epsilon-FC amine-coupled on CM5, IgG as analyte; 1:1 model, apparent KD (bivalent analyte)
T3 construct: immobilized by amine coupling on CM5; also called human CD3epsilon
T3 sequence (P07766 23-126 limits assumed): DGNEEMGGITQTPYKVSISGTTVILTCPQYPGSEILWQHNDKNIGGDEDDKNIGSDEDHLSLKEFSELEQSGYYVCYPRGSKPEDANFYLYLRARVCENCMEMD
Procedure: A CM5 sensor chip (Sensor Chip SA, GE Healthcare Life Sciences) was used to immobilize hCD3epsilon-FC antigen by amine coupling. Then, engineered anti-CD3 hIgG1 were used as the analyte.
Binding data were acquired by subsequent injection of analyte dilution series on the reference and measuring flow cells. Zero concentration samples (running buffer only) were included to allow double referencing during data evaluation. For data evaluation, doubled referenced sensorgrams were analyzed by applying a 1:1 binding model analysis to generate the equilibrium dissociation constant (KD). Binding constant described Table 7 are considered as apparent KD since immunoglobulins used as analyte are bivalent for the immobilized antigen. In addition, maximum response reached during the experiment was monitored. Maximum response describes the binding capacity of the surface in terms of the response at saturation. Finally, measured maximum responses were normalized to the one measured using parental immunoglobulin (not engineered).

[4] = target: T3, hCD3epsilon-FC antigen; assay: SPR Biacore T200; hCD3epsilon-FC amine-coupled on CM5, IgG as analyte; set-up: unit not given here
[5] = target: T4, recombinant human hFcRn (human, UniProt P55899 24-297; P61769 21-119); assay: SPR Biacore T200; IgG amine-coupled on CM5, hFcRn as analyte; response normalized to parental (=100)
T4 construct: FcRn is normally a heterodimer with it
T4 sequence (P55899 24-297 limits assumed, chain 1 of 2): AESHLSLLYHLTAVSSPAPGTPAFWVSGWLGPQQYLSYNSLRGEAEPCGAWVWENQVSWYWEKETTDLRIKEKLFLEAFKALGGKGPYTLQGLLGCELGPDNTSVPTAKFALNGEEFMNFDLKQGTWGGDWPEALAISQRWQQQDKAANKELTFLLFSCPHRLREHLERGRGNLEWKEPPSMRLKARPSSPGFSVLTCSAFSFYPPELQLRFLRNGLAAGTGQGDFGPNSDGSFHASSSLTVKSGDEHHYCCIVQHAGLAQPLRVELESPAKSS
T4 sequence (P61769 21-119 limits assumed, chain 2 of 2): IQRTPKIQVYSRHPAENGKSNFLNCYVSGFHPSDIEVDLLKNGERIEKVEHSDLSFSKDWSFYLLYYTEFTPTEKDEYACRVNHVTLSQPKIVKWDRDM
Procedure: as §1, §2

[6] = target: hC1q (human, UniProt P02745 23-245; P02746 28-253; P02747 29-245); assay: SPR Biacore T200; IgG amine-coupled on CM5, hC1q as analyte; response normalized to parental (=100)
Sequence of hC1q (P02745 23-245 limits assumed, chain 1 of 3): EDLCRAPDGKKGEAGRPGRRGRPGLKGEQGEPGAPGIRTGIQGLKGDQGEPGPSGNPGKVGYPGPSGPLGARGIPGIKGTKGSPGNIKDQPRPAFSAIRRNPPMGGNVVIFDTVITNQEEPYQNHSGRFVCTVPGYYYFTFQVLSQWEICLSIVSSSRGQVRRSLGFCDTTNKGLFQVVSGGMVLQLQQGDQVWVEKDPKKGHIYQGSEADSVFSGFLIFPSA
Sequence of hC1q (P02746 28-253 limits assumed, chain 2 of 3): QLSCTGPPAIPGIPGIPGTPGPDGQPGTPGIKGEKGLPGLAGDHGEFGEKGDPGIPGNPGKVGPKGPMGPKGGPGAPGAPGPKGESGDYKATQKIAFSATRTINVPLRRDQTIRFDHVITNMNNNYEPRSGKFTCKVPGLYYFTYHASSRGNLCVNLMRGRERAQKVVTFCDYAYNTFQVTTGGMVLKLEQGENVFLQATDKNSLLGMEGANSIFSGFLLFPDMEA
Sequence of hC1q (P02747 29-245 limits assumed, chain 3 of 3): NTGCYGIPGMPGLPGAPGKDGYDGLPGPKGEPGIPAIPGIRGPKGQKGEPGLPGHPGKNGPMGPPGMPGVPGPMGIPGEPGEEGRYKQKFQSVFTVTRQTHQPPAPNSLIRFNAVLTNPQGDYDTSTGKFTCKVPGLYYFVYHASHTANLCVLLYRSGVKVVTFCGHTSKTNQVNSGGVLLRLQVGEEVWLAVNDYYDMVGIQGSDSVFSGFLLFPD
Procedure: as §1, §2

| Binder | Maximum response at 300 nM hFcγR3a F158V (RU) [1] | Maximum response at 100 nM hFcγR1a (RU) [2] | Kd [3] | Maximum response at 125 nM hIgG1 [4] | Maximum response at 1840 nM hFcRn (RU) [5] | Maximum response at 20 nM hC1q (RU) [6] |
| --- | --- | --- | --- | --- | --- | --- |
| B1 | 20 RU | 5 RU | 2.24 nM | 386 |  |  |
| B2 | 20 RU | 6 RU | 2.09 nM | 371 | 290 RU |  |
| B3 | 10 RU | 2 RU | 2.06 nM | 371 |  | 5 RU |
| B4 | 10 RU | 7 RU | 2.1 nM | 371 |  |  |
| B5 | 10 RU | 6 RU | 3.27 nM | 392 |  | 1 RU |
| B6 | 10 RU | 4 RU | 3.38 nM | 470 |  |  |
| B7 | 2 RU | 3 RU | 2.04 nM | 375 |  |  |
| B8 |  | 12 RU |  |  | 230 RU | 1 RU |
| B9 |  | 2 RU |  |  | 126 RU | 1 RU |
| B10 | 17 RU | 7 RU | 3.74 nM | 322 | 340 RU |  |
| B11 |  | 18 RU |  |  | 126 RU | 3 RU |
| B12 | 15 RU | 10 RU | 2.42 nM | 340 | 720 RU |  |
| B13 | 19 RU | 31 RU | 2.31 nM | 367 | 284 RU |  |
| B14 |  | 2 RU |  |  | 122 RU | 10 RU |
| B15 | 71 RU | 97 RU | 2.34 nM | 342 | 586 RU |  |
| B16 | 10 RU | 4 RU | 2.74 nM | 427 |  |  |
| B17 |  | 2 RU |  |  | 696 RU | 4 RU |
